Experimental data as given in US11346848B2, “Γ-secretase stabilizing compound screening assay” (VIB VZW, priority 2017, dated 2022).

Legend:
γ-secretase = conditions: Chávez-Gutiérrez et al., 2012; Funamoto et al., 2013; read-out: Km (substrate affinity constant); cited from earlier work
[1] = test system: CC[C@H](C)[C@H](NC(=O)[C@H](C)NC(=O)CNC(=O)[C@H](CCCCN)NC(=O)[C@H](CC(N)=O)NC(=O)[C@H](CO)NC(=O)CNC(=O)[C@@H](NC(=O)[C@H](CC(=O)O)NC(=O)[C@H](CCC(=O)O)NC(=O)[C@H](C)NC(=O)[C@H](Cc1ccccc1)NC(=O)[C@H](Cc1ccccc1)NC(=O)[C@@H](NC(=O)[C@H](CC(C)C)NC(=O)[C@H](CCCCN)NC(=O)[C@H](CCC(N)=O)NC(=O)[C@H](Cc1c[nH]cn1)NC(=O)[C@H](Cc1c[nH]cn1)NC(=O)[C@@H](NC(=O)[C@H](CCC(=O)O)NC(=O)[C@H](Cc1ccc(O)cc1)NC(=O)CNC(=O)[C@H](CO)NC(=O)[C@H](CC(=O)O)NC(=O)[C@H](Cc1c[nH]cn1)NC(=O)[C@H](CCCNC(=N)N)NC(=O)[C@H](Cc1ccccc1)NC(=O)[C@H](CCC(=O)O)NC(=O)[C@H](C)NC(=O)[C@@H](N)CC(=O)O)C(C)C)C(C)C)C(C)C)C(=O)N[C@H](C(=O)NCC(=O)N[C@@H](CC(C)C)C(=O)N[C@@H](CCSC)C(=O)N[C@H](C(=O)NCC(=O)NCC(=O)N[C@H](C(=O)N[C@H](C(=O)N[C@H](C(=O)N[C@@H](C)C(=O)N[C@H](C(=O)N[C@H](C(=O)N[C@H](C(=O)N[C@H](C(=O)O)C(C)C)[C@@H](C)CC)C(C)C)[C@@H](C)O)[C@@H](C)CC)C(C)C)C(C)C)C(C)C)[C@@H](C)CC; test: purified protein, by the assay type
[2] = test system: CC[C@H](C)[C@H](NC(=O)[C@@H](NC(=O)[C@@H](NC(=O)[C@H](C)NC(=O)[C@@H](NC(=O)[C@@H](NC(=O)[C@@H](NC(=O)CNC(=O)CNC(=O)[C@@H](NC(=O)[C@H](CCSC)NC(=O)[C@H](CC(C)C)NC(=O)CNC(=O)[C@@H](NC(=O)[C@@H](NC(=O)[C@H](C)NC(=O)CNC(=O)[C@H](CCCCN)NC(=O)[C@H](CC(N)=O)NC(=O)[C@H](CO)NC(=O)CNC(=O)[C@@H](NC(=O)[C@H](CC(=O)O)NC(=O)[C@H](CCC(=O)O)NC(=O)[C@H](C)NC(=O)[C@H](Cc1ccccc1)NC(=O)[C@H](Cc1ccccc1)NC(=O)[C@@H](NC(=O)[C@H](CC(C)C)NC(=O)[C@H](CCCCN)NC(=O)[C@H](CCC(N)=O)NC(=O)[C@H](Cc1c[nH]cn1)NC(=O)[C@H](Cc1c[nH]cn1)NC(=O)[C@@H](NC(=O)[C@H](CCC(=O)O)NC(=O)[C@H](Cc1ccc(O)cc1)NC(=O)CNC(=O)[C@H](CO)NC(=O)[C@H](CC(=O)O)NC(=O)[C@H](Cc1c[nH]cn1)NC(=O)[C@H](CCCNC(=N)N)NC(=O)[C@H](Cc1ccccc1)NC(=O)[C@H](CCC(=O)O)NC(=O)[C@H](C)NC(=O)[C@@H](N)CC(=O)O)C(C)C)C(C)C)C(C)C)[C@@H](C)CC)[C@@H](C)CC)C(C)C)C(C)C)C(C)C)[C@@H](C)CC)[C@@H](C)O)C(C)C)C(=O)O; test: purified protein, by the assay type

Substance | Km (γ-secretase) [µM] | Km ([1]; other: 37° C., 37.0 °C) [µM] | Vmax ([1]; other: 37° C., 37.0 °C) [nM/h] | Km ([1]; other: 51° C., […]) [µM] | Vmax ([1]; other: 51° C., […]) [nM/h] | Km ([1]; other: summary of Table 2) [µM] | Km ([2]; other: 37° C., 37.0 °C) [µM] | Vmax ([2]; other: 37° C., 37.0 °C) [nM/h] | Km ([2]; other: 45° C., […]) [µM] | Vmax ([2]; other: 45° C., […]) [nM/h] | Km ([2]; other: 51° C., […]) [µM] | Vmax ([2]; other: 51° C., […]) [nM/h] | Km ([2]; other: summary of Table 2) [µM]
APP-C99: human Amyloid beta precursor protein C99 fragment (99 aa), natural γ-secretase substrate | 0.4 to 0.8 | – | – | – | – | – | – | – | – | – | – | – | –
wild type human γ-secretase (PSEN1/APH1a) (Homo sapiens) | – | 3.3 | 606.3 | 2.3 | 348.8 | 3 | 2.9 | 545.2 | 1.7 | 274.3 | 1.4 | 97.45 | 3
